For three substances, Response (nm), EC50 (read off the curve) and EC50 results are on record in patent publication US20260167703A1.

The target of assay [1] is DENV-2 E protein Domain III (Dengue virus serotype 2, strain Thailand/16681/1984). Put plainly: BLI, mAb on AR2G biosensor, 20 ug/mL Domain III, 1200 sec. (Biolayer interferometry detects binding as a change in optical thickness at a sensor tip.)
Assay [2] addresses Dengue Virus Serotype 2 envelope protein (Dengue virus serotype 2, strain Thailand/16681/84). The assay is described as follows: Luminex bead assay (antigen on MagPlex beads, MFI).
In assay [3] the target is DENV-2 VLP (Dengue virus serotype 2, strain Thailand/16681/84). The assay is described as follows: Luminex, VLP-coupled beads.
Assay [4] addresses DENV-4 E protein Domain III (Dengue virus serotype 4, strain Indonesia/1036/1976). Put plainly: BLI, mAb on AR2G biosensor, 20 ug/mL Domain III, 1200 sec.

For the substance 777-2 (DV2-3H5) (antibody), in assay [1], the Response (nm) amounted to 0.303 nm. The 50% effective concentration (EC50 (read off the curve)) in assay [2] worked out at 0.06 µg/mL. The EC50 in assay [3] stood at 0.0749 µg/mL.

Take 4G2 (antibody): the Response (nm) was found to be 0.056 nm in assay [4] and 0.0174 nm in assay [1].

As to 3H5 (antibody), in assay [1], the Response (nm) was found to be 0.488 nm.

Broadly, the EC50 (read off the curve) is the concentration needed to bring the measured effect to its halfway point. Read a low EC50 (read off the curve) as an effect from little substance. One may read the EC50 as the concentration that produces a half-maximal response. Read a high EC50 as lower potency in that assay.
